Reference: patent publication US20220228157A1, “GENE EDITING IN DIVERSE BACTERIA” (priority 2019, published 2022)

B1: Redβ: Redβ SSAP from Enterobacteria phage λ, SEQ ID NO: 474 (protein)
chain: MSTALATLAGKLAERVGMDSVDPQELITTLRQTAFKCDASDAQFIALLIVANQYGLNPWTKEIYAFPDKQNGIVPVVGVDGWSRIINENQQFDGMDFEQDNESCTCRIYRKDRNHPICVTEWMDECRREPFKTREGREITGPWQSHPKRMLRHKAMIQCARLAFGFAGIYDKDEAERIVENTAYTAERQPERDITPVNDETMQEINTLLIALDKTWDDDLLPLCSQIFRRDIRASSELTQAEAVKALGFLKQKATEQKVAA
modifications: Bacteriophage Lambda
B2: PapRecT: SSAP from Pseudomonas aeruginosa, SEQ ID NO: 24, UniParc ID: UPI0001E9E6CB (protein, listed as Pseudomonas aeruginosa)
chain: MGTALTPLLTKFATRYEMGTTPEEVANTLKQTCFKGQVNDSQMVALLIVADQYKLNPFTKELYAFPDKNNGIVPVVGVDGWARIINENPQFDGMEFSMDQQGTECTCKIYRKDRSHAISATEYMAECKRNTQPWQSHPRRMLRHKAMIQCARLAFGFAGIYDQDEAERIVERDVTPAEQYEDVSEAICLIKDSPTMEDLQAAFSNAWKAYKTKGARDQLTAAKDQRKKELLDAPIDVEFEETGDDRAA
B3: CspRecT: RecT SSAP (UniParc ID: UPI0001837D7F) from a phage of Collinsella stercoris (protein)
chain: MNQIVKFTDDSGLAVQVTPDDVRRYICENATEKEVGLFLQLCQTQRLNPFVKDAYLVKYGGAPASMITSYQVFNRRACRDANYDGIKSGVVVLRDGDVVHKRGAACYKKAGEELIGGWAEVRFKDGRETAYAEVALDDYSTGKSNWAKMPGVMIEKCAKAAAWRLAFPDTFQGMYAAEEMDQAQQPEQVRAQAEQPVDLQPIRELFKPYCEHFGITPAEGMTAVCGAVGAEGMHSMTEQQARRARAWMEEEMAAPAVEAEYEVVDEGEVF
modifications: Collinsella stercoris DSM 13279

What was measured:
E. coli = assay: lacZ recombineering assay (blue/white screening); assay type: cell-based, Escherichia coli; conditions: for Editing efficiency, 18-bp consecutive mismatches into lacZ / Editing efficiency, 30-bp consecutive mismatches into lacZ: wild type E. coli MG1655
Protocol: Top individual SSAPs (SEQ ID NO: 157 and SEQ ID NO: 24, using Redβ as a control) were expressed in E. coli from a lambda pL promoter. The mutational profile of edits are shown in FIG. 5, including the efficiency of introducing 18-nucleotide (NT) and 30-NT mismatches. Efficiency was measured by disruption of LacZ, plating on X-gal, and counting the number of blue vs. white colonies. In contrast to FIG. 1A, a high over-performance by the SSAP (SEQ ID NO: 157) alone was observed when it was driven off of a more efficient promoter.
To maximize the phylogenetic reach and applicability of these new tools, CspRecT was characterized, alongside Redβ and PapRecT, subcloned into the pORTMAGE plasmid system (FIGS. 10A-10B, Addgene accession: #120418). This plasmid contains a broad-host RSF1010 origin of replication, establishes tight regulation of protein expression with an m-toluic-acid inducible expression system, and disables MMR by transient overexpression of a dominant-negative mutant of E. coli MutL (MutL E32K) (Nyerges et al., Proc. Natl. Acad. Sci. U.S.A. 113, 2502-2507 (2016)), which makes it possible to establish high-efficiency editing without modification of the host genome. […] This pORTMAGE plasmid expressing CspRecT was referred to as pORTMAGE-Ec1 (Addgene).
Oligos were designed to introduce I) premature STOP codons into lacZ for E. coli, K. pneumoniae, and C. freundii, or II) RpsL K43→R; GyrA T83→I; ParC S83→L; RpoB D521→V, or a premature STOP codon into nfxB for P. aeruginosa. Oligo-mediated recombineering was performed as described above on all bacterial strains. After recovery overnight, cells were plated at empirically-determined dilutions to a density of 200-500 colonies per plate. In the case of LacZ screening, plating was assayed on MacConkey agar plates or on X-Gal/IPTG LB^L agar plates in the case of K. pneumoniae. In the case of selective antibiotic screening, cultures were plated onto both selective and non-selective plates. Selective antibiotic concentrations used were the same as those described for the selective testing above, except that in P. aeruginosa 100 μg/ml STR and 1.5 μg/ml CIP were used unless otherwise noted. Variants that were resistant to multiple antibiotics were selected on LB^L agar plates that contained the combination of all corresponding antibiotics. Non-selective plates were antibiotic-free LB^L agar plates. In all cases, allelic-replacement frequencies were calculated by dividing the number of recombinant CFUs by the number of total CFUs. Plasmid maintenance was ensured by supplementing all media and agar plates with either KAN (50 μg/ml) or GEN (20 μg/ml). Minimum Inhibitory Concentration (MIC) Measurement in P. aeruginosa

L. rhamnosus = assay type: cell-based; conditions: L. rhamnosus
Protocol: Finally, the model for RecT was used to establish recombineering in L. rhamnosus, a well-studied probiotic used to treat a variety of illnesses including diarrhea and bacterial vaginosis. Although the L. rhamnosus SSB and L. lactis SSB only have 47% identity, they share identical SSB C-terminal tail 7 amino acids. It was determined whether LrpRecT (which functions in L. lactis) is portable to L. rhamnosus, while the other RecT proteins would not be functional.

E. coli MG1655 = assay: Single-cycle multiplex genome editing with oligo pools, read out by NGS; assay type: cell-based, Escherichia coli; conditions: for Average editing efficiency at all loci: 19 simultaneous edits
Protocol: CspRecT was then tested at a variety of more complex genome editing tasks. For longer strings of consecutive mismatches, which are lower efficiency events, CspRecT was again about twice as efficient as Redβ. […] To further investigate the performance of CspRecT at complex, highly multiplexed genome editing tasks, a set of 20 oligos spaced evenly around the E. coli genome was designed, each of which incorporates a single-nucleotide synonymous mutation at a non-essential gene. Next, while expressing Redβ, PapRecT, and CspRecT separately from the corresponding pORTMAGE plasmid, a single cycle of genome editing was performed with equimolar pools of 1, 5, 10, 15, and 20 oligos and assayed editing efficiency at each locus by PCR amplification coupled to targeted next generation sequencing (NGS). […] For instance, when making 19 simultaneous edits (one oligo from the pool of 20 could not be read out due to inconsistencies in allelic amplification), CspRecT averaged 5.1% editing efficiency at all loci, whereas Redβ and PapRecT averaged only 0.40% and 0.43%. Importantly, despite keeping total oligo concentration fixed across all pools, aggregate editing efficiency increased as more oligos were present in each pool. For instance, when using CspRecT with a 19-oligo pool, aggregate editing efficiency was nearly 100%, implying that across the total recovered population of E. coli there averaged one edit per cell.
To measure single locus editing, a recombineering cycle was run with an oligo that confers a single base pair non-coding mismatch in a non-essential gene. The allele was then amplified by PCR and editing efficiency was measured by NGS as described above. To test multiplex editing, the concentration of oligo was held fixed (10 μM in the final electroporation mixture), but the total number of oligos in the mixture was varied. Pools of oligos to test editing at 5, 10, 15, or 20 alleles simultaneously were designed so as to space the edits relatively evenly around the genome. The 5-oligo pool contained oligo #'s 3,7,11,15,17, the 10-oligo pool added oligo #'s 1,5,9,13,19, the 15-oligo pool added oligo #'s 4,8,12,16,18, and the final 20-oligo pool contained silent mismatch MAGE oligos.

[1] = test system: 90 bp oligos pre-coated with SSB; assay: Oligonucleotide annealing and quenching in vitro; assay type: biochemical
Description: It was first whether two 90 bp oligos could anneal if they were pre-coated with SSB. SSBs was purified from E. coli (gram-negative), where most recombineering work has been performed, and L. lactis (gram-positive), a lactic acid bacterium phylogenetically distantly related to E. coli. […] It was next tested capacity of a phage RecT protein to overcome this SSB-mediated inhibition of annealing. Thus, Redβ, which is not broadly portable, but mediates efficient oligonucleotide annealing in E. coli, was purified. […] These preliminary results gave us an indication that while bacterial SSBs inhibit oligonucleotide annealing in vitro, RecTs overcome the inhibitory effect in an SSB-specific manner.
Fluorescent (tolC-r.null.mut-3′FAM) and quenching (tolC-f.null.mut-5′IBFQ) oligos were ordered from Integrated DNA Technologies. Unless otherwise indicated, 50 nM of each oligo was incubated in 25 mM TRIS-HCl pH 7.4 with 1.0 μM Ec_SSB or Ll_SSB at 30° C. for 30 minutes. 100 μl of each oligo mixture were then combined into a 96-well clear-bottom black assay plate (Costar), incubated a further 60 minutes at 30° C., and annealing was tracked on a Synergy H4 microplate reader (BioTek) with fluorescence excitation set to 495 nm and emission set to 520 nm. After 60 minutes, 20 μl of a solution with or without 25 μM Redβ and containing 100 mM MgCl2 was added to achieve a final reaction concentration of 2.5 μM Redβ and 10 mM MgCl2. The annealing was then tracked over 10 hours in a the Synergy H4 microplate reader with the setting indicated above.

[2] = wild-type E. coli MG1655, pORTMAGE plasmid

Molecule	Editing efficiency, 18-bp consecutive mismatches into lacZ (E. coli) [%]	Editing efficiency, 30-bp consecutive mismatches into lacZ (E. coli) [%]	Oligonucleotide incorporation (L. rhamnosus)	Average editing efficiency at all loci (E. coli MG1655) [%]	Ability to overcome SSB-mediated inhibition of annealing [1]	Annealing kinetics in vitro [1]	Editing efficiency relative to other SSAPs (E. coli; E. coli, lambda pL promoter)	Editing efficiency, average over single-base mismatches (E. coli; [2]) [%]	Editing efficiency, various single-base mismatches (E. coli; [2])	Aggregate editing efficiency (E. coli MG1655; 19-oligo pool) [%]
B1	3	1	negligible activity	0.40	overcame the inhibitory effect of EcSSB but not L1SSB	–	–	–	–	–
B2	–	–	negligible activity	0.43	–	improved annealing kinetics in vitro	–	–	–	–
B3	6	3	–	5.1	–	–	about double the efficiency of Redβ or SSAP SEQ ID NO: 24	43	35-51%	~100
